Reference: US20230212268A1 (UNM RAINFOREST INNOVATIONS, published 2023)
Where “and” joins values, the source holds several entries; their conditions need not be identical. Equal values may be shown once. Read-outs that look alike come from different tables or passages of the source.

How the values were obtained:
[1] = target: T1, recombinant EBOV glycoprotein (EBOV (Zaire ebolavirus), UniProt Q05320 33-650)
T1 sequence: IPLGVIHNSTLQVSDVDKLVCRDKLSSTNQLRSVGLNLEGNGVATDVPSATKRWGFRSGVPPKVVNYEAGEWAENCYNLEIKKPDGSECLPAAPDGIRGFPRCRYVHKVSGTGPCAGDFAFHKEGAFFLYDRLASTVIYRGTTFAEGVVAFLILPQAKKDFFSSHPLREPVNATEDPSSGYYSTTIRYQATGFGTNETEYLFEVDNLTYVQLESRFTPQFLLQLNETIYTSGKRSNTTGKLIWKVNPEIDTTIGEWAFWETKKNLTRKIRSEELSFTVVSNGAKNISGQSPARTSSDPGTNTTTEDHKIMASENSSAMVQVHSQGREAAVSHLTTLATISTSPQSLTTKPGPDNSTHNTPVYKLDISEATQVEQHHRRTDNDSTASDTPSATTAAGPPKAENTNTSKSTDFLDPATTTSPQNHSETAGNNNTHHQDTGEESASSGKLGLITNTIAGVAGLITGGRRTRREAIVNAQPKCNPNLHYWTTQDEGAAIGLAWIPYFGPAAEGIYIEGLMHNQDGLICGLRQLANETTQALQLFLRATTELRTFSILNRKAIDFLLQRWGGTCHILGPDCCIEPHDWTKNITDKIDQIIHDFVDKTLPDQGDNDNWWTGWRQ

[2] = target: recombinant BDBV glycoprotein (BDBV (Bundibugyo ebolavirus)); assay: ELISA dose response, GP coated
[3] = target: T1, recombinant EBOV glycoprotein; assay: ELISA dose response, GP coated
[4] = target: T2, recombinant SUDV glycoprotein (SUDV (Sudan ebolavirus), UniProt Q7T9D9 33-650); assay: ELISA dose response, GP coated
T2 sequence: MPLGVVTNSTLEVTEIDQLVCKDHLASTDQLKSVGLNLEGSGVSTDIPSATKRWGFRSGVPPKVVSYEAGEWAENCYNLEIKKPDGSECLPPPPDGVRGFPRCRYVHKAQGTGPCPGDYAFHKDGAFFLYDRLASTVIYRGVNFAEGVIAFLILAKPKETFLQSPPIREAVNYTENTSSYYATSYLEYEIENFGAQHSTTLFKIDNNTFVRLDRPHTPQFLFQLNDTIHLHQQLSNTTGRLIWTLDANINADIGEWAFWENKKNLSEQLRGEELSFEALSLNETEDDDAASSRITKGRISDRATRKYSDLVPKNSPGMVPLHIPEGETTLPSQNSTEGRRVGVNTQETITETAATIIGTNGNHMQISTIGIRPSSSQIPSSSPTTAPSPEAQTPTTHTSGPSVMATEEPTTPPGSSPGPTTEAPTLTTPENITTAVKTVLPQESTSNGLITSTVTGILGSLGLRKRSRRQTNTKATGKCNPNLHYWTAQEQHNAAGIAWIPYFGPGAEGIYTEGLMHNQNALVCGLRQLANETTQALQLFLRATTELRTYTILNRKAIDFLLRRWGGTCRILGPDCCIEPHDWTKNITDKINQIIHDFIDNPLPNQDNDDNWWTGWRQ

[5] = target: T3, recombinant RESTV glycoprotein (RESTV (Reston ebolavirus), UniProt Q66799 34-651); assay: ELISA dose response, GP coated
T3 sequence: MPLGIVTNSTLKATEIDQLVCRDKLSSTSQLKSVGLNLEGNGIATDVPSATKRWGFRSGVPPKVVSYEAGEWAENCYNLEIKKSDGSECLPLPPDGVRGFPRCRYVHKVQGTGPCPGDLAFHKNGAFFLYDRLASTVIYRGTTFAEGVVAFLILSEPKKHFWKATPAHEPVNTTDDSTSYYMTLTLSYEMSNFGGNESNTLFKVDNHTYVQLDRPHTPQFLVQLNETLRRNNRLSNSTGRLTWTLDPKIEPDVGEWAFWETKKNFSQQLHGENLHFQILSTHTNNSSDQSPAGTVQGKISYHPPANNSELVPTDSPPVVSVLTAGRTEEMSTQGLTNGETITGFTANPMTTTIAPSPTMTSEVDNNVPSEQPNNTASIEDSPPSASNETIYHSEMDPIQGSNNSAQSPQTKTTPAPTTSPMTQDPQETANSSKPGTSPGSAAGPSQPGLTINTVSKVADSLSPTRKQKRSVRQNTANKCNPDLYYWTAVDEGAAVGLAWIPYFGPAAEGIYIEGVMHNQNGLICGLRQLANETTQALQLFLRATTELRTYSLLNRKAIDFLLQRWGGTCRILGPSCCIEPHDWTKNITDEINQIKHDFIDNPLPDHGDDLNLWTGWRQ

[6] = target: T4, recombinant MARV glycoprotein (MARV (marburgvirus, Ravn), UniProt Q1PDC7 19-648); assay: ELISA dose response, GP coated
T4 sequence: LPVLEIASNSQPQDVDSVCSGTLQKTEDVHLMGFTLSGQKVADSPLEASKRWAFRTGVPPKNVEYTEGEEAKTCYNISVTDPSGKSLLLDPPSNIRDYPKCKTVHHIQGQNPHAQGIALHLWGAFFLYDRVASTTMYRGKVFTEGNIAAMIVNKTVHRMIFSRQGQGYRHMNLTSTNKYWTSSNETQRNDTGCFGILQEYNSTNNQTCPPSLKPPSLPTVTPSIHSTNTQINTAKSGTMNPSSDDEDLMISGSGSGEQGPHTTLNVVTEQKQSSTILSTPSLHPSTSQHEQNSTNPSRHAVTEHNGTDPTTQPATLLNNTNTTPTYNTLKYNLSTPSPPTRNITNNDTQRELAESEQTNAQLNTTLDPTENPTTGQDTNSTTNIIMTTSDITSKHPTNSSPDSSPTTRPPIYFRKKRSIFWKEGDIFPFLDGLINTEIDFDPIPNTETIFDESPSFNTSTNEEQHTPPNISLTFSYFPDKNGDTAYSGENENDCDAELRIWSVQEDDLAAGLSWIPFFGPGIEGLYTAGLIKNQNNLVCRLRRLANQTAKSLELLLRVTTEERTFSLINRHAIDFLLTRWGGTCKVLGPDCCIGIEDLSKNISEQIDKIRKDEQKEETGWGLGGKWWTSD

[7] = target: recombinant BDBV glycoprotein (BDBV (Bundibugyo ebolavirus)); assay: maximal binding from ELISA dose-response fit
[8] = target: recombinant BDBV glycoprotein (BDBV (Bundibugyo ebolavirus)); assay: ELISA dose-response fit, reference scFv22-1

B1: EbovGPscFv4-2 (scFv)
scFv: MAWSHPQFEKTGSGGAELVKSGASVKLSCTASGFNIKDDYMHWVKQRPEQGLEWIGWIDPENGDTEYASKFQGKATITADTSSNTAYLQLSSLTSEDTAVYYCTTYYYGSAWFAYWGQGTLVTVSAGGGGSGGGGSGGGGSGGGGSASLSVSVGETVTITCRASGNIHNYLAWYQQKQGKSPQLLVYNAKTLADGVPSRFSGSGSGTQYSLKINNLQPEDFGSYYCQHFWSTPYTFGGGTKLEIKRADAAPTVSIFPPSSEQLTSGGASVVCFLNNFTHCQELQQDECS
EC50 [1]: 4 µg/mL | EC50 [2]: < 9 µg/mL | EC50 [3]: 4.09 µg/mL and < 9 µg/mL | EC50 [4]: 5.3 µg/mL and < 9 µg/mL | EC50 [5]: < 9 µg/mL and 7.44 µg/mL | EC50 [6]: 4.51 µg/mL and < 9 µg/mL | Bmax signal (relative absorbance units) [7]: 220000 | fold affinity against scFv22-1 [8]: 2 fold
